Assay results published in PMC3285272 (Cell, 2012).
Values belong to the binder of their own block, whether it stands above or below them.

B1: S. cerevisiae Arf1 (residues 18–181) I43E with a C-terminal GST tag (domain or fragment, UniProt P11076 18-181, looked up)
chain: MRILMVGLDGAGKTTVLYKLKLGEVETTIPTIGFNVETVQYKNISFTVWDVGGQDRIRSLWRHYYRNTEGVIFVVDSNDRSRIGEAREVMQRMLNEDELRNAAWLVFANKQDLPEAMSAAEITEKLGLHSIRNRPWFIQATCATSGEGLYEGLEWLSNSLKNST

How the values were obtained:
[1] = molecular target: T1, full-length γζ-COP dimer (B. taurus, UniProt P53620 1-874; P35604 1-177); assay: pull-down
T1 sequence (looked up) 1: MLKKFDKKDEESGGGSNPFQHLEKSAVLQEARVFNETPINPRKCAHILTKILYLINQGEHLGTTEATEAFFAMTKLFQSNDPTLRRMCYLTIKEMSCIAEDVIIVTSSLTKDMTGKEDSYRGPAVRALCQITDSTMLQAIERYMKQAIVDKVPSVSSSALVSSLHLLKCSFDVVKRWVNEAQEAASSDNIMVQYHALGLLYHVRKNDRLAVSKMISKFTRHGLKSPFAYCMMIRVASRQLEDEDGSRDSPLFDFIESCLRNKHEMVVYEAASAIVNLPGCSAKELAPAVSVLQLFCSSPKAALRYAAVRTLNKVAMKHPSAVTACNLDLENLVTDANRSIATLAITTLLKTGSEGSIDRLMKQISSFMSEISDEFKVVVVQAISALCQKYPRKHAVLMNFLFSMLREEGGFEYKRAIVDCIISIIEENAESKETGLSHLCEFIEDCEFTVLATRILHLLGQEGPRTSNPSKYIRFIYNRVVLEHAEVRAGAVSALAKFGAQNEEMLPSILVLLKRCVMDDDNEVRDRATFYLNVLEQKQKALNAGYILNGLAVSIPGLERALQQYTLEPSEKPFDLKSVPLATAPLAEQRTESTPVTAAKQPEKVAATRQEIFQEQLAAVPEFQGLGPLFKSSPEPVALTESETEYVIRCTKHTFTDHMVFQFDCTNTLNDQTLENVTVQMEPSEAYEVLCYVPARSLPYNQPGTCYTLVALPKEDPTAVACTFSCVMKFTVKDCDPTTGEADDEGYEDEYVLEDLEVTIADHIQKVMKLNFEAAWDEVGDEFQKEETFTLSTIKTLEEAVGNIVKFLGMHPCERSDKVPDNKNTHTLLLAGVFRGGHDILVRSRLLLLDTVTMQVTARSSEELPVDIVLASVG
T1 sequence (looked up) 2: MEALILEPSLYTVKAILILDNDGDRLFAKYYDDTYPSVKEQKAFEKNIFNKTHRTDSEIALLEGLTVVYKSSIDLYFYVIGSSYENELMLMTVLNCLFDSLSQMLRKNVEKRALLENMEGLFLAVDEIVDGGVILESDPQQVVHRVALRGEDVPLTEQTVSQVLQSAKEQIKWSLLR

[2] = molecular target: T2, γζ-COP core complex (bovine γ-COP 1–355 plus ζ-COP 1–153) (B. taurus, UniProt P53620 1-355; P35604 1-153); assay: crystal structure
T2 sequence (looked up) 1: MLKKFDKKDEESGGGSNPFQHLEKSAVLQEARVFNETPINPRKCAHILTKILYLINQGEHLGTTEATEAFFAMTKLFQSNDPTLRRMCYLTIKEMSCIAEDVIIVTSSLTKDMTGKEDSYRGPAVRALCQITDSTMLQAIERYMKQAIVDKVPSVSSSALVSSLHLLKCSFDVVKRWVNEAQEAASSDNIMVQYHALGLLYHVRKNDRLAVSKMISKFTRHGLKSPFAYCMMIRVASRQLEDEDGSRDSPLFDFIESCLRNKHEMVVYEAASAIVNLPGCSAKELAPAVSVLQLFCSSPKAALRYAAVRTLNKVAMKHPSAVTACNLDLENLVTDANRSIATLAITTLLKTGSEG
T2 sequence (looked up) 2: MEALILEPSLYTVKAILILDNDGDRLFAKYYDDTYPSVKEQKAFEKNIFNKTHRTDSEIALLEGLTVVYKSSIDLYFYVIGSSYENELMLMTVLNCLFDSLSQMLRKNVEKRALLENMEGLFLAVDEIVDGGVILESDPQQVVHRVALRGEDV

[3] = molecular target: B1; assay: pull-down
[4] = molecular target: full-length βδ/γζ-COP complex (R. norvegicus | B. taurus, UniProt P23514 1-953; P53619 1-511; P53620 1-874; P35604 1-177); assay: GTPase fluorescence assay

Binder: B1
- binding result [1]: binds

- binding result [2]: binds
B2: S. cerevisiae Arf1 (residues 18–181) complexed with GppNHp (domain or fragment, UniProt P11076 18-181, looked up)
chain: MRILMVGLDGAGKTTVLYKLKLGEVITTIPTIGFNVETVQYKNISFTVWDVGGQDRIRSLWRHYYRNTEGVIFVVDSNDRSRIGEAREVMQRMLNEDELRNAAWLVFANKQDLPEAMSAAEITEKLGLHSIRNRPWFIQATCATSGEGLYEGLEWLSNSLKNST

- percent binding capacity relative to wild-type Arf1 [3]: 90%
B3: full-length βδ-COP dimer (complex, R. norvegicus | B. taurus)
chain 1: MTAAENVCYTLINVPMDSEPPSEISLKNDLEKGDVKSKTEALKKVIIMILNGEKLPGLLMTIIRFVLPLQDHTIKKLLLVFWEIVPKTTPDGRLLHEMILVCDAYRKDLQHPNEFIRGSTLRFLCKLKEAELLEPLMPAIRACLEHRHSYVRRNAVLAIYTIYRNFENLIPDAPELIHDFLVNEKDASCKRNAFMMLIHADQDRALDYLSTCIDQVQTFGDILQLVIVELIYKVCHANPSERARFIRCIYNLLQSSSPAVKYEAAGTLVTLSSAPTAIKAAAQCYIDLIIKESDNNVKLIVLDRLVELKEHPAHERVLQDLVMDILRVLSTPDLEVRKKTLQLALDLVSSRNVEELVIVLKKEVIKTNNVSEHEDTDKYRQLLVRTLHSCSVRFPDMAANVIPVLMEFLSDSNEAAAADVLEFVREAIQRFDNLRMLIVEKMLEVFHAIKSVKIYRGALWILGEYCSTKEDIQSVMTEVRRSLGEIPIVESEIKKEAGELKPEEEITVGPVQKLVTEMGTYATQSALSSSRPTKKEEDRPPLRGFLLDGDFFVAASLATTLTKIALRYVALVQEKKKQNSFVAEAMLLMATILHLGKSSLPKKPITDDDVDRISLCLKVLSECSPLMNDIFNKECRQSLSQMLSAKLEEEKLSQKKESEKRNVTVQPDDPISFMQLTAKNEMNCKEDQFQLSLLAAMGNTQRKEAADPLASKLNKVTQLTGFSDPVYAEAYVHVNQYDIVLDVLVVNQTSDTLQNCTLELATLGDLKLVEKPSPLTLAPHDFANIKANVKVASTENGIIFGNIVYDVSGAASDRNCVVLSDIHIDIMDYIQPATCTDAEFRQMWAEFEWENKVTVNTNVTDLNDYLQHILKSTNMKCLTPEKALSGYCGFMAANLYARSIFGEDALANVSIEKPVHQGPDAAVTGHIRIRAKSQGMALSLGDKINLSQKKTSL
chain 2: MVLLAAAVCTKAGKAIVSRQFVEMTRTRIEGLLAAFPKLMNTGKQHTFVETESVRYVYQPMEKLYMVLITTKNSNILEDLETLRLFSRVIPEYCRALEENEISEHCFDLIFAFDEIVALGYRENVNLAQIRTFTEMDSHEEKVFRAVRETQEREAKAEMRRKAKELQQARRDAERQGKKAPGFGGFGSSTVSGGSTTSMITETIIETDKPKVAPAPARPSGPSKALKLGAKGKEVDNFVDKLKSEGENIISSNMGKRTSEATKVHAPPINMESVHMKIEEKITLTCGRDGGLQNMELHGMIMLRISDDKFGRIRLHVENEDKKGVQLQTHPNVDKKLFTAESLIGLKNPEKSFPVNSDVGVLKWRLQTTEESFIPLTINCWPSESGNGCDVNIEYELQEDNLELNDVVITIPLPSGVGAPVIGEIDGEYRHDSRRNTLEWCLPVIDAKNKSGSLEFSIAGQPNDFFPVQVSFISKKNYCNIQVTKVTQVDGNSPVRFSTETTFLVDKYEIL

- Kd [4]: ~1 µM
B4: H. sapiens Arf1 (residues 18–181) (domain or fragment)
chain: not shown
